The target of experiment [1] is T1, human MSLN protein endogenously expressed on OVCAR3 tumor cells (human, UniProt Q13421 296-598).
T1 construct: whole, on cells; Endogenous target on OVCAR3 cells; kept apart from the recombinant full-length construct; also called mesothelin
Description: FACS on OVCAR3 cells.

The target of experiment [2] is T2, monkey MSLN full-length protein (NCBI: XP_028696439.1) expressed on HEK293T-monkey MSLN cells (monkey).
T2 construct: Whole encoded precursor
T2 chain: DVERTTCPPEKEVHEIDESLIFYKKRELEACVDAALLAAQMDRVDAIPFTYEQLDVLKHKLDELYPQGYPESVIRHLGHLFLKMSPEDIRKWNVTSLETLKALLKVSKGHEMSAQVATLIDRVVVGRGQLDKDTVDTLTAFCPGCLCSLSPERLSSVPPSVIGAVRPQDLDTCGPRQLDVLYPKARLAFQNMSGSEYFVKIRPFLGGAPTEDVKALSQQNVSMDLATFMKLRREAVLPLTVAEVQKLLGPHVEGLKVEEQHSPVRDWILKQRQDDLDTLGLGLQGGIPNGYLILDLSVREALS
Description: FACS on HEK293T-monkey MSLN cells.

Experiment [3] deals with T3, human MSLN full-length protein (NCBI: AAH09272.1) expressed on HEK293T-hMSLN-B8 cells (human, UniProt Q13421 296-598).
T3 construct: Whole encoded precursor
Description: FACS on HEK293T-hMSLN-B8 cells.

Experiment [4] deals with T4, human MSLN-R3 protein (Met487-Ser606 of NCBI AAH09272.1) expressed on HEK293T-hMSLN-R3 cells (human, UniProt Q13421 487-606).
T4 construct: also called Region3
Description: FACS on HEK293T-hMSLN-R3 cells.

The target of experiment [5] is T5, human MSLN-R3-his protein (human, UniProt Q13421 487-598).
T5 construct: also called human MSLN-R3 protein; hMSLN-R3-his; not shown: His tag
In words: ELISA, coated antigen; antibody 0.1 nM. A general note: In an ELISA, binding on a coated surface is turned into a signal by an enzyme label.

The target in experiment [6] is T5, human MSLN-R3-his protein. Description: ELISA, coated antigen; antibody 1 nM.
Experiment [7] addresses T6, human MSLN-R3-3 polypeptide (human).
T6 construct: also called human MSLN-R3-3 protein; hMSLN-R3-3
In words: ELISA, coated antigen; antibody 0.001 nM.

The target of experiment [8] is T5, human MSLN-R3-his protein. Description: ELISA, coated antigen; antibody 0.01 nM.
Experiment [9] has as its target T6, human MSLN-R3-3 polypeptide. In words: ELISA, coated antigen; antibody 0.0001 nM.
For experiment [10] the target is unchanged. In words: ELISA, coated antigen; antibody 10 nM.
Experiment [11] deals with T5, human MSLN-R3-his protein. Description: ELISA, coated antigen; antibody 10 nM.
Experiment [12] has as its target T5, human MSLN-R3-his protein. In words: ELISA, coated antigen; antibody 0.0001 nM.
Experiment [13] concerns the target T6, human MSLN-R3-3 polypeptide. In words: ELISA, coated antigen; antibody 100 nM.
For experiment [14] the target is unchanged. In words: ELISA, coated antigen; antibody 0.1 nM.
The target of experiment [15] is T5, human MSLN-R3-his protein. In words: ELISA, coated antigen; antibody 0.001 nM.
The target in experiment [16] is T5, human MSLN-R3-his protein. In words: ELISA, coated antigen; no antibody (blank, column 'none').
For experiment [17], the target named is T6, human MSLN-R3-3 polypeptide. In words: ELISA, coated antigen; antibody 0.01 nM.
For experiment [18] the target is unchanged. Description: ELISA, coated antigen; no antibody (blank, column 'none').
The target is the same in experiment [19]. Description: ELISA, coated antigen; antibody 1 nM.
Experiment [20] has as its target T5, human MSLN-R3-his protein. Description: ELISA, coated antigen; antibody 100 nM.
Experiment [21] deals with T7, human MSLN-FL-his protein (human, UniProt Q13421 296-580).
T7 construct: Self-made in HEK293E cells; also called human MSLN full-length protein; hMSLN-FL-his; not shown: His tag
Description: ELISA on coated antigen, antibody 0.0001 nM.

Experiment [22] concerns the target T7, human MSLN-FL-his protein. In words: ELISA on coated antigen, antibody 0.01 nM.
Experiment [23] concerns the target T7, human MSLN-FL-his protein. In words: ELISA on coated antigen, no antibody (column none).
The target in experiment [24] is T7, human MSLN-FL-his protein. In words: ELISA on coated antigen, antibody 0.1 nM.
Experiment [25] addresses T8, human MSLN-R1-his protein (human, UniProt Q13421 296-390).
T8 construct: Self-made in HEK293E cells; also called human MSLN-R1 protein; hMSLN-R1-his; not shown: His tag
T8 chain: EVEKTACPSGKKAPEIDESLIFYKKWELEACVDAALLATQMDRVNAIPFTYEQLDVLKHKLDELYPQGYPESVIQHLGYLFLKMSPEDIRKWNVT
Description: ELISA on coated antigen, antibody 0.0001 nM.

The target of experiment [26] is T8, human MSLN-R1-his protein. In words: ELISA on coated antigen, antibody 100 nM.
The target of experiment [27] is T8, human MSLN-R1-his protein. Description: ELISA on coated antigen, antibody 0.1 nM.
In experiment [28] the target is T7, human MSLN-FL-his protein. Description: ELISA on coated antigen, antibody 1 nM.
The target in experiment [29] is T8, human MSLN-R1-his protein. Description: ELISA on coated antigen, antibody 0.001 nM.
Experiment [30] has as its target T7, human MSLN-FL-his protein. Description: ELISA on coated antigen, antibody 10 nM.
Experiment [31] addresses T7, human MSLN-FL-his protein. In words: ELISA on coated antigen, antibody 0.001 nM.
Experiment [32] addresses T8, human MSLN-R1-his protein. In words: ELISA on coated antigen, antibody 0.01 nM.
Experiment [33] deals with T7, human MSLN-FL-his protein. Description: ELISA on coated antigen, antibody 100 nM.
The target of experiment [34] is T8, human MSLN-R1-his protein. In words: ELISA on coated antigen, antibody 10 nM.
In experiment [35] the target is T8, human MSLN-R1-his protein. In words: ELISA on coated antigen, no antibody (column none).
The target in experiment [36] is T8, human MSLN-R1-his protein. Description: ELISA on coated antigen, antibody 1 nM.

The record followed here is patent US20250250357A1 (NANJING ZAIMING PHARMACEUTICAL, published 2025).

T5 sequence (Q13421 495-606): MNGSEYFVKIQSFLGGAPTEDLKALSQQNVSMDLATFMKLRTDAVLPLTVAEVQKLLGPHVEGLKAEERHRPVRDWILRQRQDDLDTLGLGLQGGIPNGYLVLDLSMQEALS
T7 sequence (Q13421 other isoform, or with tags, fused parts or gaps): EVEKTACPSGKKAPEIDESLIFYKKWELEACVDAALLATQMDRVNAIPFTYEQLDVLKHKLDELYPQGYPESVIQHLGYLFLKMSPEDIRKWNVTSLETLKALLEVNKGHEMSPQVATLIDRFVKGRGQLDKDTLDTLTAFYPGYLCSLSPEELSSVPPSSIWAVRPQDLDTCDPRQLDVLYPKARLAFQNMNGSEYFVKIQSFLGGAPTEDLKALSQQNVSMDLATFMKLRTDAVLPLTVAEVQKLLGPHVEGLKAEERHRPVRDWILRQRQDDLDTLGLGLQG
T3 sequence (Q13421 other isoform, or with tags, fused parts or gaps limits assumed): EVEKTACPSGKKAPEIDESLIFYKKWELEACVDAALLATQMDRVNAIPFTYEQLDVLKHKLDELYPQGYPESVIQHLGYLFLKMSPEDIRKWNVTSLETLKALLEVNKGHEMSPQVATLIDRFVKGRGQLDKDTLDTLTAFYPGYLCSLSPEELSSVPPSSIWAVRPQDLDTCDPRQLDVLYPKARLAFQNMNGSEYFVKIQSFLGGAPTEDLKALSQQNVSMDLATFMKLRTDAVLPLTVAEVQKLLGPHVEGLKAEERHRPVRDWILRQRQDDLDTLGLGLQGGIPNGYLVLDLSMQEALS
T1 sequence (Q13421 other isoform, or with tags, fused parts or gaps): as the sequence (Q13421 other isoform, or with tags, fused parts or gaps limits assumed) above, with P14R counted along it
T4 sequence (Q13421 495-614): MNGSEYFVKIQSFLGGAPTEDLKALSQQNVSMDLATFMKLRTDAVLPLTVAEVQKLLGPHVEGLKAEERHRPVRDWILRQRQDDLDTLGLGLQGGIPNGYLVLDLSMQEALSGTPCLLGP

B1: S009-F4-94.15 (antibody, human IgG1, kappa, V domains shown)
VH: QVQLHQPGAELVRPGSSVKLSCKASGYTFTSYWVHWVQQRPRQGLEWIGNIDPSDSEIHYNQKFKDKATLTVDKSSSTAYIHLSRLTSEDSAIYYCVRGGVPWFAYWGQGTLVTVSA
VL: QIVLTQSPAIMSASPGEKVTLTCSASSSVSSTYLYWFQQKPGSSPKVWIYSTSNLASGVPARFSGSGSGTSYSLTISSMEAEDAASYFCHQWISYPYTFGGGTKLEIKR
notes: human-murine chimeric antibody, human IgG1/kappa constant regions
Usually EC50 stands for the concentration at which the effect is half-maximal. In the case of B1, the EC50 in [1] is 0.65 nM; in experiment [2] it was 0.37 nM; in experiment [3], 3.06 nM. Besides, the “Maximum mean fluorescence intensity” value in experiment [1] was 7060; in experiment [2], 29900; in experiment [3], 113000; in experiment [4], 84. Further, the binding result in [4] is listed as “no binding”.

B2: S009-F3.45.21 (antibody, human IgG1, kappa, V domains shown)
VH: DVQLQESGPGLVKPSQSLSLTCSVTGDSITSGYYWNWIRQFPGNKLEWMGFIRFDGTNNYNPSLKNRISITRDTSKNQFFLKLNSVTTEDTATYYCAREGSYAPAWFAYWGQGTLVTVSA
VL: QIVLTQSPAIMSASPGEKVTMTCSASSSLSYMYWYQQKPGSSPRLLIYDTSNLASGVPVRFSGSGSGTSYSLTISRMEAEDAATYYCQQWSSYPPTFGGGTKLEIKR
notes: Human-murine chimeric antibody, human IgG1/kappa constant regions
Turning to B2, the OD450 in experiment [5] was 0.06 OD450; in experiment [6] it was 0.05 OD450; in experiment [7], 0.25 OD450; in [8], 0.07 OD450; in experiment [9], 0.1 OD450; in [10], 0.08 OD450. In addition, the OD450 came out at 0.07 OD450 in experiment [11]; 0.09 OD450 in experiment [12]; 0.11 OD450 in experiment [13]; 0.08 OD450 in experiment [14]; 0.24 OD450 in [15]; 0.09 OD450 in [16]. The OD450 in experiment [17] was 0.07 OD450; in [18], 0.07 OD450; in experiment [19], 0.07 OD450; in experiment [20] it was 0.09 OD450.

B3: S009-F3.23.1 (antibody, human IgG1, kappa, V domains shown)
VH: QVQLQQSGADLVRPGASVTLSCKASGYTFTDYEMHWVKQTPVHGLEWIGAIDPETGDTVYNQNFKGKAILTADKSSSTAYMELRSLTSEDSAVYYCTRYGYDWGWGQGTTLTVSS
VL: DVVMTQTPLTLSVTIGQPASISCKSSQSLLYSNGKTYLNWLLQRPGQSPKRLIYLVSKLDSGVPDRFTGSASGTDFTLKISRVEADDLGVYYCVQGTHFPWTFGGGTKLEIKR
notes: as for B2
B3: the OD450 in [5] was determined as 1.51 OD450; in experiment [6], 1.77 OD450; in experiment [7] it was 0.18 OD450; in experiment [8] it was 0.48 OD450; in experiment [9], 0.09 OD450; in experiment [10], 2.01 OD450. Moreover, the OD450 in [11] is 1.95 OD450; in experiment [12], 0.08 OD450; in [13], 2.33 OD450; in experiment [14], 1.54 OD450; in experiment [15], 0.12 OD450; in experiment [16] it was 0.1 OD450. Further, the OD450 in [17] was 0.57 OD450; in [18] it was 0.09 OD450; in [19], 1.87 OD450; in experiment [20], 2.31 OD450.

B4: S009-F3.51.8 (antibody, human IgG1, kappa, V domains shown)
VH: QVQLQQSGAELVRPGASVTLSCKASGYTFTDYEMHWVKQTPVHGLEWIGGFDPETGGTAHNQKFKGKAILTADKSSSTAYMELRSLTSEDSAVYYCSNYGSIWGDCWGQGTSVTVSS
VL: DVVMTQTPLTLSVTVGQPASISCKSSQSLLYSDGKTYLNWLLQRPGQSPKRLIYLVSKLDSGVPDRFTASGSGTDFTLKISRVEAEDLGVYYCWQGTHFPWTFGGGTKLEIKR
notes: as for B2
As for B4, the OD450 in experiment [5] turned out to be 1.55 OD450; in experiment [6], 1.83 OD450; in experiment [7] it was 0.13 OD450; in experiment [8], 0.41 OD450; in experiment [9] it was 0.09 OD450; in experiment [10], 1.92 OD450. The OD450 in [11] is 1.91 OD450; in experiment [12] it was 0.09 OD450; in [13] it was 2.04 OD450; in experiment [14] it was 1.42 OD450; in experiment [15] it was 0.12 OD450; in [16], 0.09 OD450. Further, the OD450 in [17] was found to be 0.51 OD450; in experiment [18], 0.07 OD450; in experiment [19] it was 1.8 OD450; in [20], 2.18 OD450.

B5: S009-F3.80.22 (antibody, human IgG1, kappa, V domains shown)
VH: QVQLQQSGAELVRPGASVTLSCKASGYTFTDYEIHWVKQTPVHGLEWIGAFDPEIGGSAYNQKFKDRATLTADKSSSTAYMELHSLTAEDSAVYYCTDYYGSSSGYFDVWGTGTTVTVSS
VL: DVVMTQTPLSLPVSLGDQASISCRSSQSLEHNNGNTYLHWFLHKPGQSPKLLIYKVSNRFSGVPDRFSGSGSGTDFTLKISRVEAEDLGVYFCSQSTHVPFTFGSGTKLEIKR
notes: Human-murine chimeric antibody: murine VH/VL on human IgG1 heavy and kappa light constant regions
Regarding B5, the OD450 in experiment [21] is 0.07 OD450; in [22], 0.69 OD450; in experiment [23] it was 0.07 OD450; in experiment [24], 1.71 OD450; in experiment [25], 0.06 OD450; in experiment [26], 0.07 OD450. Moreover, the OD450 in experiment [27] stood at 0.06 OD450; in experiment [28], 1.97 OD450; in [29] it was 0.06 OD450; in experiment [30] it was 1.99 OD450; in experiment [31] it was 0.14 OD450; in experiment [32], 0.06 OD450. For the same molecule, the OD450 in [33] was 2.31 OD450; in experiment [34], 0.06 OD450; in experiment [35] it was 0.06 OD450; in [36] it was 0.05 OD450.
